{"source": "patent US20240400654A1", "note": "Where “and” joins values, the source holds several entries; their conditions need not be identical. Identical values can stand only once.", "data": [{"biological_target": "HRgpA-6H (Porphyromonas gingivalis) (UniProt P28784)", "sequence (P28784 228-860 limits assumed)": "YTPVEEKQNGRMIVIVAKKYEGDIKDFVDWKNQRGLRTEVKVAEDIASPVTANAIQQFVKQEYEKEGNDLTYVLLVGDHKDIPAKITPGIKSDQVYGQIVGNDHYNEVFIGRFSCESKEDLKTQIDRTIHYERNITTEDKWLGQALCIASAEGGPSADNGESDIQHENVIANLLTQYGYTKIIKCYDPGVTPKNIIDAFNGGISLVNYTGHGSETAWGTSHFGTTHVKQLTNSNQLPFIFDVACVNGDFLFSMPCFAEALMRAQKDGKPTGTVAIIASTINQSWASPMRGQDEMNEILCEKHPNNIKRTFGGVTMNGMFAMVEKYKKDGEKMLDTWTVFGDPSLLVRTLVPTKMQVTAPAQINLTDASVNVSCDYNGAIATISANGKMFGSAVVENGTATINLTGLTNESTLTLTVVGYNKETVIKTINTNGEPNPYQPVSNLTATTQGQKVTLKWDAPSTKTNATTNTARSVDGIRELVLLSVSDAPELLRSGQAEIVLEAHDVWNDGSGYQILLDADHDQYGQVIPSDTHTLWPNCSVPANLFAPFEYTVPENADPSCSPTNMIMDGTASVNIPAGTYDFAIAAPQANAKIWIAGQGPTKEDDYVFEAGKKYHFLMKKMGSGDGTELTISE", "test": "ELISA, coated HRgpA-6H", "values": [{"binder": "KB001 mouse Fab VH V34M (Fab, V domains shown) VH: EVQLKQSGPGLVAPSQSLSITCTVSGFSLSIYSMHWVRQPPGKGLEWLGMIWGGGSSDYNSALKSRLSISKDNSKSQVFLKMNSLQTDDTAMYYCARNGNFYAMDYWGQGTSVTVSS VL: QIVLTQSPAIMSASLGERVTMTCTASSSVSSSFLHWYQQKPGSSPQLWIYSTSNLASGVPARFSGSGSGTSYSLTISSMEAEDAATYYCHQYHHSPYIYTFGGGTKLEIK", "OD450 nm": "0.793 and 0.791", "Ratio OD(Variant)/OD(WT)": "0.962 and 0.959"}, {"binder": "KB001 mouse Fab VH G53S (Fab, V domains shown) VH: EVQLKQSGPGLVAPSQSLSITCTVSGFSLSIYSVHWVRQPPGKGLEWLGMIWSGGSSDYNSALKSRLSISKDNSKSQVFLKMNSLQTDDTAMYYCARNGNFYAMDYWGQGTSVTVSS VL: QIVLTQSPAIMSASLGERVTMTCTASSSVSSSFLHWYQQKPGSSPQLWIYSTSNLASGVPARFSGSGSGTSYSLTISSMEAEDAATYYCHQYHHSPYIYTFGGGTKLEIK", "OD450 nm": 0.686, "Ratio OD(Variant)/OD(WT)": 0.861}, {"binder": "KB001 mouse Fab VH G53P (Fab, V domains shown) VH: EVQLKQSGPGLVAPSQSLSITCTVSGFSLSIYSVHWVRQPPGKGLEWLGMIWPGGSSDYNSALKSRLSISKDNSKSQVFLKMNSLQTDDTAMYYCARNGNFYAMDYWGQGTSVTVSS VL: QIVLTQSPAIMSASLGERVTMTCTASSSVSSSFLHWYQQKPGSSPQLWIYSTSNLASGVPARFSGSGSGTSYSLTISSMEAEDAATYYCHQYHHSPYIYTFGGGTKLEIK", "OD450 nm": "0.754 and 0.716", "Ratio OD(Variant)/OD(WT)": "0.947 and 0.899"}, {"binder": "KB001 mouse Fab VH G55N (Fab, V domains shown) VH: EVQLKQSGPGLVAPSQSLSITCTVSGFSLSIYSVHWVRQPPGKGLEWLGMIWGGNSSDYNSALKSRLSISKDNSKSQVFLKMNSLQTDDTAMYYCARNGNFYAMDYWGQGTSVTVSS VL: QIVLTQSPAIMSASLGERVTMTCTASSSVSSSFLHWYQQKPGSSPQLWIYSTSNLASGVPARFSGSGSGTSYSLTISSMEAEDAATYYCHQYHHSPYIYTFGGGTKLEIK", "OD450 nm": 0.652, "Ratio OD(Variant)/OD(WT)": 0.81}, {"binder": "KB001 mouse Fab VH H35V (Fab, V domains shown) VH: EVQLKQSGPGLVAPSQSLSITCTVSGFSLSIYSVVWVRQPPGKGLEWLGMIWGGGSSDYNSALKSRLSISKDNSKSQVFLKMNSLQTDDTAMYYCARNGNFYAMDYWGQGTSVTVSS VL: QIVLTQSPAIMSASLGERVTMTCTASSSVSSSFLHWYQQKPGSSPQLWIYSTSNLASGVPARFSGSGSGTSYSLTISSMEAEDAATYYCHQYHHSPYIYTFGGGTKLEIK", "OD450 nm": 0.706, "Ratio OD(Variant)/OD(WT)": 0.856}, {"binder": "KB001 mouse Fab VH I51Q/M92I (Fab, V domains shown) VH: EVQLKQSGPGLVAPSQSLSITCTVSGFSLSIYSVHWVRQPPGKGLEWLGMQWGGGSSDYNSALKSRLSISKDNSKSQVFLKMNSLQTDDTAIYYCARNGNFYAMDYWGQGTSVTVSS VL: QIVLTQSPAIMSASLGERVTMTCTASSSVSSSFLHWYQQKPGSSPQLWIYSTSNLASGVPARFSGSGSGTSYSLTISSMEAEDAATYYCHQYHHSPYIYTFGGGTKLEIK", "OD450 nm": 0.722, "Ratio OD(Variant)/OD(WT)": 0.817}, {"binder": "KB001 mouse Fab VH I51V (Fab, V domains shown) VH: EVQLKQSGPGLVAPSQSLSITCTVSGFSLSIYSVHWVRQPPGKGLEWLGMVWGGGSSDYNSALKSRLSISKDNSKSQVFLKMNSLQTDDTAMYYCARNGNFYAMDYWGQGTSVTVSS VL: QIVLTQSPAIMSASLGERVTMTCTASSSVSSSFLHWYQQKPGSSPQLWIYSTSNLASGVPARFSGSGSGTSYSLTISSMEAEDAATYYCHQYHHSPYIYTFGGGTKLEIK", "OD450 nm": 0.798, "Ratio OD(Variant)/OD(WT)": 0.903}, {"binder": "KB001 mouse Fab VH G55D (Fab, V domains shown) VH: EVQLKQSGPGLVAPSQSLSITCTVSGFSLSIYSVHWVRQPPGKGLEWLGMIWGGDSSDYNSALKSRLSISKDNSKSQVFLKMNSLQTDDTAMYYCARNGNFYAMDYWGQGTSVTVSS VL: QIVLTQSPAIMSASLGERVTMTCTASSSVSSSFLHWYQQKPGSSPQLWIYSTSNLASGVPARFSGSGSGTSYSLTISSMEAEDAATYYCHQYHHSPYIYTFGGGTKLEIK", "OD450 nm": 0.697, "Ratio OD(Variant)/OD(WT)": 0.866}]}]}
